B1: KLHDC2 substrate binding domain (KLHDC2^SBD, 15-361) (domain or fragment)
chain: GPAFESYESMELACPAERSGHVAVSDGRHMFVWGGYKSNQVRGLYDFYLPREELWIYNMETGRWKKINTEGDVPPSMSGSCAVCVDRVLYLFGGHHSRGNTNKFYMLDSRSTDRVLQWERIDCQGIPPSSKDKLGVWVYKNKLIFFGGYGYLPEDKVLGTFEFDETSFWNSSHPRGWNDHVHILDTETFTWSQPITTGKAPSPRAAHACATVGNRGFVFGGRYRDARMNDLHYLNLDTWEWNELIPQGICPVGRSWHSLTPVSSDHLFLFGGFTTDKQPLSDAWTYCISKNEWIQFNHPYTEKPRLWHTACASDEGEVIVFGGCANNLLVHHRAAHSNEILIFSVQP
B2: BRD3^BD2 (second bromodomain of BRD3, residues 306-416) (domain or fragment)
chain: GKLSEHLRYCDSILREMLSKKHAAYAWPFYKPVDAEALELHDYHDIIKHPMDLSTVKRKMDGREYPDAQGFAADVRLMFSNCYKYNPPDHEVVAMARKLQDVFEMRFAKMP

Experiments:
[1] = biological target: T1, BRD2^BD2 G-to-E swap mutant (G382E) (UniProt P25440 344-455, G-to-E swap mutation (G382)); test: ITC; ternary, with SJ46421
[2] = biological target: T2, BRD3^BD2 E344G swap mutant (UniProt Q15059 306-416, E344G); test: ITC; ternary, with SJ46421
[3] = biological target: T3, BRD4^BD2 G-to-E swap mutant (G386E) (UniProt O60885 334-460, G-to-E swap mutation (G386)); test: ITC; ternary, with SJ46421
[4] = biological target: T1, BRD2^BD2 G-to-E swap mutant (G382E); test: ITC; ternary complex with PROTAC SJ46421
[5] = biological target: T2, BRD3^BD2 E344G swap mutant; test: ITC; ternary complex with PROTAC SJ46421
[6] = biological target: T3, BRD4^BD2 G-to-E swap mutant (G386E); test: ITC; ternary complex with PROTAC SJ46421
[7] = biological target: B2; test: ITC; ternary, BRD3 BD2 pre-bound to SJ46423
[8] = biological target: T4, BRD2^BD2 (second bromodomain of BRD2, residues 344-455) (UniProt P25440 344-455); test: ITC; ternary, BRD2 BD2 pre-bound to PROTAC SJ46421
[9] = biological target: B2; test: ITC; ternary, BRD3 BD2 pre-bound to PROTAC SJ46421
[10] = biological target: T5, BRD4^BD2 (second bromodomain of BRD4, residues 334-460) (UniProt O60885 334-460); test: ITC; ternary, BRD4 BD2 pre-bound to PROTAC SJ46421
[11] = biological target: T4, BRD2^BD2 (second bromodomain of BRD2, …); test: ITC; ternary complex with PROTAC SJ46421 (BRD2BD2-SJ46421 in cell)
[12] = biological target: B2; test: ITC; ternary complex with PROTAC SJ46421 (BRD3BD2-SJ46421 in cell)
[13] = biological target: T5, BRD4^BD2 (second bromodomain of BRD4, …); test: ITC; ternary complex with PROTAC SJ46421 (BRD4BD2-SJ46421 in cell)
[14] = biological target: B2; test: ITC; ternary complex with PROTAC SJ46423 (BRD3BD2-SJ46423 in cell)
[15] = biological target: KLHDC2 R112 to alanine mutant (UniProt Q9Y2U9 15-361, R112 to alanine); test: ITC; ternary, with SJ46421
[16] = biological target: KLHDC2 K291 to alanine mutant (UniProt Q9Y2U9 15-361, K291 to alanine); test: ITC; ternary, with SJ46421
KLHDC2 R56A mutant [17] = biological target: T6, KLHDC2 R56A mutant (UniProt Q9Y2U9 15-361, R56A); test: ITC; ternary, with SJ46421
[18] = biological target: KLHDC2 H346/R347 to alanine mutant (UniProt Q9Y2U9 15-361, H346 to alanine | R347 to alanine, H346A and R347A taken as one combined double mutant, because the text lists H346/R347 as one of four patches mutated to alanine; whether they were combined is not printed explicitly); test: ITC; ternary, with SJ46421
KLHDC2 R56A mutant [19] = biological target: T6, KLHDC2 R56A mutant; test: ITC; ternary complex with PROTAC SJ46421

Binder | Kd [1] | Kd [2] | Kd [3] | Kd [4] | Kd [5] | Kd [6] | Kd [7] | Kd [8] | Kd [9] | Kd [10] | Kd [11] | Kd [12] | Kd [13] | Kd [14] | Kd [15] | Kd [16] | Kd (KLHDC2 R56A mutant [17]) | Kd [18] | Kd (KLHDC2 R56A mutant [19])
B1 | 95.4 nM | 181 nM | 24.5 nM | 95.4 nM | 181 nM | 24.5 nM | 251 nM | 208 nM | 19 nM | 109 nM | 208 nM | 19 nM | 109 nM | 251 nM | – | – | – | – | –
B2 | – | – | – | – | – | – | – | – | – | – | – | – | – | – | 39.7 nM | 25.6 nM | 273 nM | 50.9 nM | 273 nM
